Among the data in patent US20010049357A1, “Use of Hsp27 as an anti-inflammatory agent” (priority 1999, published 2001) are TNFα induced and adverse effects values, retold here.

Data set [1] concerns Mono Mac 6, a human monocyte cell line. The following applies: reference 7; cited from earlier work.
Data set [2] is described as follows: Adverse effect of Hsp 25 in normal rats. The class given is in vivo. The following applies: 10 μg in normal rats (~250 gm body weight). The procedure:
Studies were performed to analyze the adverse effect of Hsp 25 (a murine analogue of Hsp27 ) in rats. […] To examine the effects in an animal model, the cecal ligation and puncture model (CLP) in rats can be used. (Chaudry, et al, 1993, In: Schlag, G. and Redl, H. (Eds), Pathophysiology of shock, Sepsis, and Organ Failure. Springer-Verlag, pp. 1048-1059.) CLP induces sepsis in rats. Hsp25 is administered to the CLP animals and the anti-inflammatory effect of Hsp25 in CLP rats is evaluated. The effectiveness of Hsp25 in simultaneously inducing IL-10 and IL-12 in human monocytes in the rat model, is reasonably predictive of the efficacy of Hsp27 as an anti-inflammatory agent in humans.

B1: Hsp 60: Human 60-kDa heat-shock protein, member of the large Hsp family (protein, UniProt P10809 27-573, looked up)
60 kDa heat shock protein, …: AKDVKFGADARALMLQGVDLLADAVAVTMGPKGRTVIIEQSWGSPKVTKDGVTVAKSIDLKDKYKNIGAKLVQDVANNTNEEAGDGTTTATVLARSIAKEGFEKISKGANPVEIRRGVMLAVDAVIAELKKQSKPVTTPEEIAQVATISANGDKEIGNIISDAMKKVGRKGVITVKDGKTLNDELEIIEGMKFDRGYISPYFINTSKGQKCEFQDAYVLLSEKKISSIQSIVPALEIANAHRKPLVIIAEDVDGEALSTLVLNRLKVGLQVVAVKAPGFGDNRKNQLKDMAIATGGAVFGEEGLTLNLEDVQPHDLGKVGEVIVTKDDAMLLKGKGDKAQIEKRIQEIIEQLDVTTSEYEKEKLNERLAKLSDGVAVLKVGGTSDVEVNEKKDRVTDALNATRAAVEEGIVLGGGCALLRCIPALDSLTPANEDQKIGIEIIKRTLKIPAMTIAKNAGVEGSLIVEKIMQSSSEVGYDAMAGDFVNMVEKGIIDPTKVVRTALLDAAGVASLLTTAEVVVTEIPKEEKDPGMGAMGGMGGGMGGGMF
With B1, in data set [1], the TNFα induced entry was “approximately 750 pg/ml”.

B2: Hsp25: a murine analogue of Hsp27 (protein, UniProt P14602 1-209, looked up)
Heat shock protein beta-1: MTERRVPFSLLRSPSWEPFRDWYPAHSRLFDQAFGVPRLPDEWSQWFSAAGWPGYVRPLPAATAEGPAAVTLAAPAFSRALNRQLSSGVSEIRQTADRWRVSLDVNHFAPEELTVKTKEGVVEITGKHEERQDEHGYISRCFTRKYTLPPGVDPTLVSSSLSPEGTLTVEAPLPKAVTQSAEITIPVTFEARAQIGGPEAGKSEQSGAK
With B2, the adverse effects entry in data set [2] is given as “did not induce any adverse effects”.
